Laboratory results as given in patent publication US9994628B2, “Peptides and combination of peptides for use in immunotherapy against various tumors” (IMMATICS BIOTECHNOLOGIES GMBH, priority 2015, dated 2018).

These substances were tested against HLA-A*02:01 (Homo sapiens, UniProt P04439, D140Y/D185E/D98H/E176V/E277Q/G131W/G231S/I119V/I121R/I166T/I218V/L300P/L318F/N151K/N90K/P208A/P217A/Q86G/Q94H/R138H/R169H/T345S) (assay: MHC binding assay: UV-ligand exchange and β2m ELISA (peptide exchange yield, Table 7)). Conditions: binding of HLA-class I restricted peptides to HLA-A*02:01, UV-ligand exchange.
Text: Candidate peptides for T cell based therapies according to the present invention were further tested for their MHC binding capacity (affinity). The individual peptide-MHC complexes were produced by UV-ligand exchange, where a UV-sensitive peptide is cleaved upon UV-irradiation, and exchanged with the peptide of interest as analyzed. Only peptide candidates that can effectively bind and stabilize the peptide-receptive MHC molecules prevent dissociation of the MHC complexes. To determine the yield of the exchange reaction, an ELISA was performed based on the detection of the light chain (β2 m) of stabilized MHC complexes. The assay was performed as generally described in Rodenko et al. (Rodenko et al., 2006).
96 well MAXISorp plates (NUNC) were coated over night with 2 ug/ml streptavidin in PBS at room temperature, washed 4× and blocked for 1 h at 37° C. in 2% BSA containing blocking buffer. Refolded HLA-A*02:01/MLA-001 monomers served as standards, covering the range of 15-500 ng/ml. Peptide-MHC monomers of the UV-exchange reaction were diluted 100 fold in blocking buffer. Samples were incubated for 1 h at 37° C., washed four times, incubated with 2 ug/ml HRP conjugated anti-β2 m for 1 h at 37° C., washed again and detected with TMB solution that is stopped with […]. Absorption was measured at 450 nm. Candidate peptides that show a high exchange yield (preferably higher than 50%, most preferred higher than 75%) are generally preferred for a generation and production of antibodies or fragments thereof, and/or T cell receptors or fragments thereof, as they show sufficient avidity to the MHC molecules and prevent dissociation of the MHC complexes.

Q: How did the “Peptide exchange (MHC class I binding score, peptide exchange yield)” value (shortened to “Peptide exchange”) turn out when “142 (LLDAAHASI; listed as Homo sapiens) [compound 142]” was run?
A: ++ (≥20% = ++)

Q: With “143 (MLWESIMRV; listed as Homo sapiens) [compound 143]” as the substance, how does the “Peptide exchange” value read?
A: +++ (≥50% = +++)

Q: “144 (FLISQTPLL; listed as Homo sapiens) [compound 144]” was tested. Which “Peptide exchange” value did it give?
A: +++ (≥50% = +++)

Q: Which “Peptide exchange” value does the source give for “145 (ALEEKLENV; listed as Homo sapiens) [compound 145]” here?
A: +++ (≥50% = +++)

Q: “146 (VVAAHLAGA; listed as Homo sapiens) [compound 146]” was tested. Which “Peptide exchange” value did it give?
A: ++ (≥20% = ++)

Q: “147 (GLLSALENV; listed as Homo sapiens) [compound 147]” was tested. Which “Peptide exchange” value did it give?
A: +++ (≥50% = +++)

Q: With “148 (YLILSSHQL; listed as Homo sapiens) [compound 148]” as the substance, how does the “Peptide exchange” value read?
A: +++ (≥50% = +++)

Q: “149 (NMADGQLHQV; listed as Homo sapiens) [compound 149]” was tested. Which “Peptide exchange” value did it give?
A: ++ (≥20% = ++)

Q: For “150 (VLLDMVHSL; listed as Homo sapiens) [compound 150]”, which “Peptide exchange” value is on record?
A: +++ (≥50% = +++)

Q: Which “Peptide exchange” value does the source give for “151 (DISKRIQSL; listed as Homo sapiens) [compound 151]” here?
A: ++ (≥20% = ++)

Q: Which “Peptide exchange” value does the source give for “153 (KLVELEHTL; listed as Homo sapiens) [compound 153]” here?
A: +++ (≥50% = +++)

Q: “154 (AIIKEIQTV; listed as Homo sapiens) [compound 154]” was tested. Which “Peptide exchange” value did it give?
A: ++ (≥20% = ++)

Q: With “155 (TLDSYLKAV; listed as Homo sapiens) [compound 155]” as the substance, how does the “Peptide exchange” value read?
A: ++ (≥20% = ++)

Q: Which “Peptide exchange” value does the source give for “157 (ILQDGQFLV; listed as Homo sapiens) [compound 157]” here?
A: ++ (≥20% = ++)

Q: For “158 (YLDPLWHQL; listed as Homo sapiens) [compound 158]”, which “Peptide exchange” value is on record?
A: +++ (≥50% = +++)

Q: How did the “Peptide exchange” value turn out when “159 (QLGPVPVTI; listed as Homo sapiens) [compound 159]” was run?
A: +++ (≥50% = +++)

Q: How did the “Peptide exchange” value turn out when “160 (TLQEWLTEV; listed as Homo sapiens) [compound 160]” was run?
A: +++ (≥50% = +++)

Q: With “161 (NLLDENVCL; listed as Homo sapiens) [compound 161]” as the substance, how does the “Peptide exchange” value read?
A: ++++ (≥75% = ++++)

Q: Which “Peptide exchange” value does the source give for “162 (GLLGNLLTSL; listed as Homo sapiens) [compound 162]” here?
A: +++ (≥50% = +++)

Q: How did the “Peptide exchange” value turn out when “163 (GLEERLYTA; listed as Homo sapiens) [compound 163]” was run?
A: ++ (≥20% = ++)

Q: Which “Peptide exchange” value does the source give for “164 (MLIIRVPSV; listed as Homo sapiens) [compound 164]” here?
A: +++ (≥50% = +++)

Q: “165 (SLLDYEVSI; listed as Homo sapiens) [compound 165]” was tested. Which “Peptide exchange” value did it give?
A: +++ (≥50% = +++)

Q: For “166 (LLGDSSFFL; listed as Homo sapiens) [compound 166]”, which “Peptide exchange” value is on record?
A: +++ (≥50% = +++)

Q: Which “Peptide exchange” value does the source give for “167 (LVVDEGSLVSV; listed as Homo sapiens) [compound 167]” here?
A: +++ (≥50% = +++)

Q: “168 (VIFEGEPMYL; listed as Homo sapiens) [compound 168]” was tested. Which “Peptide exchange” value did it give?
A: +++ (≥50% = +++)

Q: Which “Peptide exchange” value does the source give for “169 (ALADLSVAV; listed as Homo sapiens) [compound 169]” here?
A: +++ (≥50% = +++)

Q: With “170 (FIAAVVEKV; listed as Homo sapiens) [compound 170]” as the substance, how does the “Peptide exchange” value read?
A: ++ (≥20% = ++)

Q: How did the “Peptide exchange” value turn out when “171 (LLLLDVPTA; listed as Homo sapiens) [compound 171]” was run?
A: ++ (≥20% = ++)

Q: Which “Peptide exchange” value does the source give for “173 (RLIDIYKNV; listed as Homo sapiens) [compound 173]” here?
A: +++ (≥50% = +++)

Q: For “174 (ALYSGDLHAA; listed as Homo sapiens) [compound 174]”, which “Peptide exchange” value is on record?
A: ++ (≥20% = ++)

Q: How did the “Peptide exchange” value turn out when “175 (SLLDLVQSL; listed as Homo sapiens) [compound 175]” was run?
A: +++ (≥50% = +++)

Q: Which “Peptide exchange” value does the source give for “176 (VQSGLRILL; listed as Homo sapiens) [compound 176]” here?
A: ++ (≥20% = ++)

Q: How did the “Peptide exchange” value turn out when “177 (ALINVLNAL; listed as Homo sapiens) [compound 177]” was run?
A: +++ (≥50% = +++)

Q: Which “Peptide exchange” value does the source give for “178 (SLVSWQLLL; listed as Homo sapiens) [compound 178]” here?
A: ++++ (≥75% = ++++)

Q: “179 (TLGEIIKGV; listed as Homo sapiens) [compound 179]” was tested. Which “Peptide exchange” value did it give?
A: +++ (≥50% = +++)

Q: “180 (RLYEEEIRI; listed as Homo sapiens) [compound 180]” was tested. Which “Peptide exchange” value did it give?
A: +++ (≥50% = +++)

Q: With “181 (LLWAPTAQA; listed as Homo sapiens) [compound 181]” as the substance, how does the “Peptide exchange” value read?
A: +++ (≥50% = +++)

Q: Which “Peptide exchange” value does the source give for “182 (GLQDGFQITV; listed as Homo sapiens) [compound 182]” here?
A: +++ (≥50% = +++)

Q: How did the “Peptide exchange” value turn out when “183 (ALSYILPYL; listed as Homo sapiens) [compound 183]” was run?
A: +++ (≥50% = +++)

Q: With “184 (ALDSTIAHL; listed as Homo sapiens) [compound 184]” as the substance, how does the “Peptide exchange” value read?
A: ++ (≥20% = ++)

Q: With “185 (TLYQGLPAEV; listed as Homo sapiens) [compound 185]” as the substance, how does the “Peptide exchange” value read?
A: ++ (≥20% = ++)

Q: Which “Peptide exchange” value does the source give for “187 (SILKEDPFL; listed as Homo sapiens) [compound 187]” here?
A: ++ (≥20% = ++)

Q: “188 (VLGEEQEGV; listed as Homo sapiens) [compound 188]” was tested. Which “Peptide exchange” value did it give?
A: ++ (≥20% = ++)

Q: For “190 (SLSTELFKV; listed as Homo sapiens) [compound 190]”, which “Peptide exchange” value is on record?
A: +++ (≥50% = +++)

Q: For “191 (AAIEIFEKV; listed as Homo sapiens) [compound 191]”, which “Peptide exchange” value is on record?
A: +++ (≥50% = +++)

Q: With “192 (TLLPSSGLVTL; listed as Homo sapiens) [compound 192]” as the substance, how does the “Peptide exchange” value read?
A: ++ (≥20% = ++)

Q: How did the “Peptide exchange” value turn out when “193 (ALFHMNILL; listed as Homo sapiens) [compound 193]” was run?
A: +++ (≥50% = +++)

Q: “194 (KLLEEVQLL; listed as Homo sapiens) [compound 194]” was tested. Which “Peptide exchange” value did it give?
A: ++ (≥20% = ++)

Q: For “195 (VIIQNLPAL; listed as Homo sapiens) [compound 195]”, which “Peptide exchange” value is on record?
A: +++ (≥50% = +++)

Q: For “198 (ILTNKVVSV; listed as Homo sapiens) [compound 198]”, which “Peptide exchange” value is on record?
A: ++ (≥20% = ++)

Q: Which “Peptide exchange” value does the source give for “199 (SVADLAHVL; listed as Homo sapiens) [compound 199]” here?
A: ++ (≥20% = ++)
